Assay results as given in paper PMC8550791.

Target: K48-linked pentaubiquitin (UniProt P0CG48)

MINDY1 P138A (residues 110-384) (from UniProt Q8N5J2 110-384) (domain or fragment)
Km of steady-state kinetics of cleavage of fluorescently labeled K48-linked pentaUb, against MINDY1 WT: 3 fold lower
